In experiment [1] the target is rabbit muscle F-actin, biotinylated (rabbit, UniProt P68135 1-377). As to the kind of experiment: BLI. The following applies: both partners purified.
Experiment [2] deals with rabbit muscle G-actin, biotinylated (rabbit, UniProt P68135 1-377). The experiment can be described thus: BLI. The following applies: both partners purified.

Broadly, the Kd is the equilibrium constant for the complex coming apart. Low values mean tighter binding, high ones weaker binding.

B1: Plasmodium falciparum aldolase (enzyme)
chain: MAHCTEYMNAPKKLPADVAEELATTAQKLVQAGKGILAADESTQTIKKRFDNIKLENTIENRASYRDLLFGTKGLGKFISGAILFEETLFQKNEAGVPMVNLLHNENIIPGIKVDKGLVNIPCTDEEKSTQGLDGLAERCKEYYKAGARFAKWRTVLVIDTAKGKPTDLSIHETAWGLARYASICQQNRLVPIVEPEILADGPHSIEVCAVVTQKVLSCVFKALQENGVLLEGALLKPNMVTAGYECTAKTTTQDVGFLTVRTLRRTVPPALPGVVFLSGGQSEEEASVNLNSINALGPHPWALTFSYGRALQASVLNTWQGKKENVAKAREVLLQRAEANSLATYGKYKGGAGGENAGASLYEKKYVY
notes: also called Pf aldolase; recombinant Pf aldolase; source: E. coli BL21 (pGEX-5X), purified, GST tag removed
For B1, the Kd in experiment [1] worked out at 365 nM; in experiment [2] it was 330 nM.

The values above are taken from PMC4251702, “Plasmodium falciparum aldolase and the C-terminal cytoplasmic domain of certain apical organellar proteins promote actin polymerization” (Molecular and Biochemical Parasitology, 2014).
